Laboratory results from the DeepSol protein solubility set.

Assay: soluble on expression in E. coli; label from the status in PepcDB or PDB records

Row | Sequence | soluble on expression in E. coli
1 | MTTHQDGNADGASATARTVSLDVVVVGAGTSGCYAAATVADAGYDVVIVERKDETEAGHIACGDALKGASDFPDAIPKSQLEPAFTNTDVDHGRFEIPQEDTVLEIPVPGELAVIDRWEYGRCLIEGANDSGVEFHYDTVVQDVLQDDSGRVTGVKAMRKGDPVTYEGDMVIDGAGALSILQDKTDLEAATFDTNVQYSQFCSAYREIIEVDEPVEWDDALVFKPTERSAGYLWYFPRTDTEINAGLGFQMNEEPMELVDDLKRDLQGRSEFEGAEVQDKLGAALPTRRPYDSAVAPGFMAVGDAAGHVNPTTGGGIAGAAYAGTYAAEQAIEAIEAGRTDDEAALWEYNERVMDHFGARYAALDVYNIFTTAYDVDDLMALLAALPGEKLAEALYGGSTSIGLGLKLKMAVKSIGHLGTIRDLYQTKKAADRLLEHYESYPSDRSGFEAWQRERDSIMDDIYEVTGAEPKYLEHHHHHH | soluble
2 | MAPGTAELEIDETLHLLRMVMQREFIHYLETLPGTKELFIDKCLLRPLDMIATSSDMKRHGVKRIMHFDLQKSPQVWNIEIDQRVFFLRPNVENARKIVEYVEESSENRSICVIWCNRQLEECDLAFESSGVIGHITQLSLNMCLLPLESDLFSLQHVESAQPDLFSVANMFVALQNLYGVIPTVYGLGSESKNLWNLVHALCSSNELRARPDQPISHLFLFDRQLDPVPVLLTGASYEGLLHEFFTIDCGKLAFPVDLRKQVQTGPLDFDWIEINPEEDKEAHQQNRGDTVKLDNCEDIFASIRNKHVTAALEFLHSKAKSIQKSIEKSSMIDDVADYRNFVEKDLRALKKDHKHCELHINACEMMMNKVKMEDYRTMFKLEHEMLLGTVTHEEYFDFVFERVPMRSCRDVVLSMMSLASLKLDGVPDDTYNEFVEMYLQKYGYEHMFELQNLRNSRVIYARRHIAHDRTISERARTWETLARKFRIVKGNEPMDMSNPSDMSYVFGARISPLLCKIVEDTIDHGWNQAEYERIIGKDKVLVEENTYIAADRRPDNRTRKAIMVFVNGGITYWEVAALRLLAIQKNFRILICTTHVIKKREYLEVRAKDASSVFGS | not soluble
3 | MKQGTMNILFFVLKTKLLKNGEAPVLMRITINGDYDDVRIQRSVPLNLWNAAKGCSKGRDRASVALNAYIAELHARALEKHKELVLEQALITPKLILKRVFGKDTEMRTLLGTMREGIKEMETLAGIDYSPVTINRYKNVVKKLQLLIPSYYGKEDVTFHELTPEFIRAFDIYLKTEAGLCRNTIVRYMKCFKKFTNMALAKEWMRKNPFYGYKMEQDETDPVFLTYDELQTVMKKKFTIPRLELVRDVFVFACFTGLAFSDVASLNKENLVQDNLGDWWIRKGRVKLEHRRKASSISNIPLLPVPLAILEKYKEHPTCIKKGCCLPVMCNQKMNSYLKEIADFCGIKKNLTTHVARHTFGTTVTLANNVPLQDVSVMLGHASTRMTQHYARVMNSSLKEAMNTVKERLAQ | not soluble
4 | MDAVRQSFQQLQNELRRDWCGIEAGGLASDYDILVVPSLSLDAHELQKISGVLFYEERLLFSLIRLRDPRTRVIYVTSEPLPPLVIDYYLQLLPGIPFSHARDRLLLLSTCDSSLKPLTQKILERPRLLERIRRALRPGSSFMTCFNSSPLERELSVALRVPLFAADPDLLEWGTKAGSRSLFAECGLPHPAGSPLMDSVEDLAAAAAELWQDQPQAQRFVIKLNQGFSGEGNALLDLRPIAQQSPDRVGLTAASQAIAQQFPVMRFQAAHETWQNFQGRITDLGAIAELFIEGEVKRSPSVQGCIHPSGQVEILSTHDQILGGPDGQIYLGCRFPADPAYRLQLQKWGEQIGEALAQRGALERFGVDFVAVNQGGDHWELQAIEINLRKGGTTHPFMTLKYLTNGYYDPQSGQFCSELGQPKYYVATDNLQSPRYRGVLPQDLMDIIAANQLHFDSSTKTGTVFHLMGCLSQYGKLGLTSIGNSPEQAQALYDEVVSVLDRETDPALEHHHHHH | soluble
5 | VPLTVADIDRWNAQAVREVFHAASARAEVTFEASRQLAALSIFANSGGKTAEAAAHHNAGIRRDLDAHGNEALAVARAADRAADGIVKVQSELAALRHAAAAAELTIDALINRVVPIPGLRSTEAQWARTLAKQTELQAELDAIMAEANAVDEELASAVNMADGDAPIPADSGPPVGPEGLTPTQLASDANEERLREERARLQAHLERLQAEYDQLSVRAARDYHNGILDGDAVGRLAALTDELSAARGRLGELDAVDEALSRAPETYLTQLQIPEDPNQQVLAAVAVGNPDTAANVSVTVPGVGSTTRGALPGMVTEARDLRSEVIRQLNAAGKPASVATIAWMGYHPPPNPLDTGSAGDLWQTMTDGQAHAGAADLSRYLQQVRANNPSGHLTVLGHSYGSLTASLALQDLDAQSAHPVNDVVFYGSPGLELYSPAQLGLDHGHAYVMQAPHDLITNLVAPLAPLHGWGLDPYLTPGFTELSSQAGFDPGGIWRDGVYAHGDYPRSFLDAAGQPQLRMSGYNLAAIAAGLPDNTVGPPLLPPILGGGMPAAPGPALRGGR | not soluble
6 | MQAYTYTIIQRLDNLNQQRIDRALALMDSQSQQVFHLIPALLNYNHPVIPGYYDADVPFGVHGLELNPIQQQFIDDIQLAIGQPLKTAEKPAILGLYTMGSTSSIGQSTSSDLDIWVCISPEMDCDERELLTNKCLLITDWAQSQGVEANFFLMDEERFRSNHSEEMTGDNCGSSQHLLLLDEFYRSAVRIAGQRLLWQIVPPEMEECYDEYVSQLCSDGYIDCSEWIDFGKLNRIPAEEYFGSNLWQLYKSIDSPYKSVLKAILLEAYSWEYPHTQLLSIDTKRRFFAHEPDLYGMDAYYLMLEKVTRYLERIQDDTRLDLVRRCFYLKTHEKLSREPDVGSVAWRREALSDMIAKWNWDDSVVAELDDRRNWKVEQVKVVHHALLDALMQSYRNLIQFARRNDITSAISPQDISILARKLYAAFEVLPGKVTLLNPQISPDLHEADLSFIEVKEGGVNKSGWYLYKQPLIAHRILGQPCLEHHEYLSKLVSWAFFNGLITESTRLHAVVREAQLDIDKFYQMVSDLRNTFALRKRRPTMQALASPCEISQLAMFINFENDPTSELSGRSLKVDVKNTDIFSFGPEHKNLVGSVDLVYRNSWHEVRTLHFKGETAMLDALKTILGKMHQDALPPESVDVFCYAKNMRGVMRNMVYQLLAECIDLRLKPVEQEKRRRFKAMRLGNQTYGLFFERRGVSVQKLENSIDFYRSISTNKLKGSPLLMLDREQEYQLPEAVDGFASEGLVQFFFEDNEDGFNIYVLDESNQVEVYHQFSGSKDEMIASVNSFYTSVKDDSRVASKFINFNLPQYYQIIHPEEGNAYIIPYRNDGCSP | not soluble
7 | MSTEKLEASEEPQAPLANTSETNSIKGDTENIVTVFDLANEIEKSLKDVQRQMKENDDEFSRSIQAIEDKLNKMSR | not soluble
8 | MELDVFVGNTTVLDEDIYQLWLDGHSVSDVVRQRMDAGVLLECEASPDVLQSDTIDQFRTFQMCERLLQSPSKVANQLLFQIPSDQQAMLIERYYEFDSVFAREVLGKKLSKGTKKDLDDVSAKTGIALKSCRRQFDNFKRVFKVVEELKGPLVENIQRHFLLSDDLARDYATIVFFANSRFETGKRKLQYLSFQDFAFCAGQLISYWTVGAVDNMIEDMDVDLEKDFLHDLKDLKVLVNDKDLLDQHKSLVCGQLRGKIKVFNEMEASFKNLSRALVNIASKLTHAKDVRDLFIDLVEKFIEPCRSDKWTSGDLRLFLTHYSTSVHTLEAFRHQVIWDRYMGVIKSCILKMYHD | soluble
9 | SFHYQALPMRVSFEVGAVTKIGEELDRLGLSRALVLCTPEQKHLADLVMDHLGDRGAGIFDQARMHVPVETADRARDRARKLGADSCVVIGGGSSIGLGKAIALEHGLPIIAIPTTYAGSEMTPIWGLTRDGRKQTGRDAKVLPQSVIYDPQLTAT | not soluble
10 | GPGSMVVAVYPGTFDPLTRGHEDLVRRASSIFDTLVVGVADSRAKKPFFSLEERLKIANEVLGHYPNVKVMGFTGLLKDFVRANDARVIVRGLRAVSDFEYEFQMAGMNRYLLPDVETMFMTPSDQYQFISGTIVREIAQLGGDVSKFVFPSVEKWLTEKVAAMAQGPSA | soluble
11 | MSLNPANLPFDSDTMLQGLRAWVECESPTWDTAAVERMLDLAAREMAIMGATIERIAGRQGFAGCVRARFPHPKQGEPGILIAGHLDTVHPVGTLSKLPFRREGNKAFGPGIFDMKGGNYLTLEAIKQLARASFTTPLPITVLFTPDEEVGTPSTRDIIEAEAARNKYVLVPEPGRPDNGVVTGRYAIARFNLEAIGKPSHAGATLSSGRSAIREMAKQILAIDAMTTEDCTFSVGIVHGGQWVNCVATTCTGEALSMAKRQADLDRGVDRMLALSGSSSDVTFKVTRGVTRPVWEPDSGTMALYEKARAVASQLGVSLPHGSAGGGSDGNFTGAMGIPTLDGLGVRGADAHTLNEHIEVDSLAERGRLMAGLLATLEEGHHHHHH | not soluble
